Here are results for 22 molecules from US20080020978A1 (Amgen, published 2008).

Square brackets hold non-standard residues; d marks the D form. Ends that are not written are not given here. * marks the point of attachment. Bn2 = Nα,Nα-dibenzyl on N-terminal residue; 1Nal = N[C@@H](Cc1cccc2ccccc12)C(=O)O; hArg = N=C(N)NCCCC[C@H](N)C(=O)O; Tic = O=C(O)[C@@H]1Cc2ccccc2CN1; Cha = N[C@@H](CC1CCCCC1)C(=O)O; Cit = NC(=O)NCCC[C@H](N)C(=O)O; Phg = N[C@H](C(=O)O)c1ccccc1; Bn = c1ccc(C*)cc1; Acm = CC(=O)NC* Some results are limits rather than exact numbers.

For test [1], the target named is T1, CGRP1 receptor (CRLR/RAMP1 complex) of human neuroblastoma SK-N-MC cells (human, UniProt Q16602 23-461; O60894 27-148). Briefly: cell-based or functional assay.
Test [2] concerns the target T1, CGRP1 receptor (CRLR/RAMP1 complex) of …. Put plainly: 125I-hαCGRP competition, SK-N-MC membranes. How it is done: CGRP₁ binding experiments. […] The plates were incubated at room temperature for 2 hour with shaking at 60 rpm, then the contents of each well were filtered over 0.5% polyethyleneimine (PEI)-treated (at least one hour) GF/C 96-well filter plates. The GF/C filter plates were washed 6 times with ice-cold 50 mM Tris, pH 7.5 and dried in an oven at 55 C for 1 hour. The bottoms of the GF/C plates were then sealed, and 40 μl Microscint™ 20 was added to each well, then the tops of the GF/C plates were sealed with TopSeal™-A, a press-on adhesive sealing film, and the GF/C plates were counted with TopCount NXT (Packard). The data were analyzed by using ActivityBase (IDBS) or Prizm (GraphPad) software.

T1 sequence (Q16602 23-461, chain 1 of 2): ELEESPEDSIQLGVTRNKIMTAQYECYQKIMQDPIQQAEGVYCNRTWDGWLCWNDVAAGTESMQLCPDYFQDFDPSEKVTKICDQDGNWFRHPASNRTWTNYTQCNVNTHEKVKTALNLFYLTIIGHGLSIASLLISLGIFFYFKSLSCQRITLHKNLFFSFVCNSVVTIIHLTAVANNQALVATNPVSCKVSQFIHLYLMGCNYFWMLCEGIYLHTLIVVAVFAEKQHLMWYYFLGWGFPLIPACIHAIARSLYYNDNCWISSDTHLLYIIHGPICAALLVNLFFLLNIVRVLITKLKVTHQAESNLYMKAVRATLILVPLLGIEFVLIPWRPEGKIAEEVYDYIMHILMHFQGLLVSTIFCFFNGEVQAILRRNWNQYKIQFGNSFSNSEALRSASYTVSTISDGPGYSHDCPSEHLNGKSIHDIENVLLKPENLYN
T1 sequence (O60894 27-148, chain 2 of 2): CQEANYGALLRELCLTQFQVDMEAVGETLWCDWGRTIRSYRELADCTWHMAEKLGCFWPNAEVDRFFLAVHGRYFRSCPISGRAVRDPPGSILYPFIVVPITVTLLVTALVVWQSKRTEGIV

For orientation: IC50 means the point on the concentration scale where inhibition reaches its midpoint. Read a high IC50 as weaker potency. For the molecule WVTHXLAGLLSXSGGVVXKNXVPTDVGXFAF (Ac-WVTH[Cit]LAGLLS[Cit]SGGVV[hArg]KN[2-Nal]VPTDVG[Oic]FAF-NH2) [SEQ ID NO 137], the “IC50” value in test [1] was 2.66 nM.

Consider WVTHXLAGLLSXSGGVVXKNXVXTDVGXFAX (Ac-WVTH[Cit]LAGLLS[Cit]SGGVV[hArg]KN[2-Nal]V[Oic]TDVG[Oic]FA[2-Nal]-NH2) [SEQ ID NO 139], for which half-maximal inhibition in test [1] (IC50) required 3.57 nM.

In the case of WVTHXLAGLLSXSGGVVXKNXVPTDVGXFAX (Ac-WVTH[Cit]LAGLLS[Cit]SGGVV[hArg]KN[2-Nal]VPTDVG[Oic]FA[2-Nal]-NH2) [SEQ ID NO 138], in test [1], the “IC50” value amounted to 3.45 nM.

On to WVTHXLAGLLSXSGGVVXKNFVPTDVGPXAF (Ac-WVTH[Cit]LAGLLS[Cit]SGGVV[hArg]KNFVPTDVGP[1-Nal]AF-NH2) [SEQ ID NO 144], for which the “IC50” value in test [1] came out at 2.24 nM.

As a reminder, the Ki is the equilibrium dissociation constant of an inhibitor or competing ligand from its target. WVTHXLAGLLSXSGGVVRKNFVPTDVGPFAF (Ac-WVTH[Cit]LAGLLS[Cit]SGGVVRK(20 KPEGald)NFVPTDVGPFAF-NH2) [SEQ ID NO 158] returned a Ki in test [2] of 2.61 nM.

Molecule WVTHXLAGLLSXSGGVVXKNFVPTDVGPFAF (Ac-WVTH[Cit]LAGLLS[Cit]SGGVV[hArg]K(20 KPEGald)NFVPTDVGPFAF-NH2) [SEQ ID NO 171] displayed an inhibition constant (Ki) in test [2] of 1.27 nM.

In the case of WVTHXLAGLLSXSGGVVXKNFVPTDVGPFAF (Ac-WVTH[Cit]LAGLLS[Cit]SGGVV[hArg]K(20 K PEGald)NFVPTDVGPFAF-NH2) [SEQ ID NO 153], the affinity in test [2], expressed as Ki, was 1.78 nM.

For WVTHXLAGLLSXSGGVVXKNFVPTDVGPFAF (Ac-WVTH[Cit]LAGLLS[Cit]SGGVV[hArg]KNFVPTDVGPFAF-NH2) [SEQ ID NO 653], the “IC50” value in test [1] amounted to 3.22 nM.

B1: SEQ ID NO 128 (peptide)
peptide: Ac-KWVTH[Cit]LAGLLS[Cit]SGGVVRKNFVPTDVGPKAF-NH2
SMILES: CC(=O)N[C@@H](CCCCN)C(=O)N[C@@H](Cc1c[nH]c2ccccc12)C(=O)N[C@H](C(=O)N[C@H](C(=O)N[C@@H](Cc1c[nH]cn1)C(=O)N[C@@H](CCCNC(N)=O)C(=O)N[C@@H](CC(C)C)C(=O)N[C@@H](C)C(=O)NCC(=O)N[C@@H](CC(C)C)C(=O)N[C@@H](CC(C)C)C(=O)N[C@@H](CO)C(=O)N[C@@H](CCCNC(N)=O)C(=O)N[C@@H](CO)C(=O)NCC(=O)NCC(=O)N[C@H](C(=O)N[C@H](C(=O)N[C@@H](CCCNC(=N)N)C(=O)N[C@@H](CCCCN)C(=O)N[C@@H](CC(N)=O)C(=O)N[C@@H](Cc1ccccc1)C(=O)N[C@H](C(=O)N1CCC[C@H]1C(=O)N[C@H](C(=O)N[C@@H](CC(=O)O)C(=O)N[C@H](C(=O)NCC(=O)N1CCC[C@H]1C(=O)N[C@@H](CCCCN)C(=O)N[C@@H](C)C(=O)N[C@@H](Cc1ccccc1)C(N)=O)C(C)C)[C@@H](C)O)C(C)C)C(C)C)C(C)C)[C@@H](C)O)C(C)C
As for B1, the “IC50” value in test [1] was determined as 13 nM.

Turning to Bn2-VTHRLAGLLSRSGGVVKNNFVPTDVGPFAF-NH2 [SEQ ID NO 702], the affinity in test [2] corresponds to a Ki of 0.23 nM.

Take ASDTATCVTHRLAGLLSRSGGVVKNNFVPTNVGSKAF (ASDTATC(Acm)VTHRLAGLLSRSGGVVKNNFVPTNVGSKAF-NH2) [SEQ ID NO 707]: affinity in test [2] was put at a Ki of 20.8 nM.

On to ASDTATSVTHRLAGLLSRSGGVVKNNFVPTNVGSKAF-NH2 [SEQ ID NO 709], for which the Ki in test [2] was 12.1 nM.

B2: SEQ ID NO 708 (peptide)
peptide: AC(Acm)DTATSVTHRLAGLLSRSGGVVKNNFVPTNVGSKAF-NH2
modifications: N-terminus assumed
SMILES: CC(=O)NCSC[C@H](NC(=O)[C@H](C)N)C(=O)N[C@@H](CC(=O)O)C(=O)N[C@H](C(=O)N[C@@H](C)C(=O)N[C@H](C(=O)N[C@@H](CO)C(=O)N[C@H](C(=O)N[C@H](C(=O)N[C@@H](Cc1c[nH]cn1)C(=O)N[C@@H](CCCNC(=N)N)C(=O)N[C@@H](CC(C)C)C(=O)N[C@@H](C)C(=O)NCC(=O)N[C@@H](CC(C)C)C(=O)N[C@@H](CC(C)C)C(=O)N[C@@H](CO)C(=O)N[C@@H](CCCNC(=N)N)C(=O)N[C@@H](CO)C(=O)NCC(=O)NCC(=O)N[C@H](C(=O)N[C@H](C(=O)N[C@@H](CCCCN)C(=O)N[C@@H](CC(N)=O)C(=O)N[C@@H](CC(N)=O)C(=O)N[C@@H](Cc1ccccc1)C(=O)N[C@H](C(=O)N1CCC[C@H]1C(=O)N[C@H](C(=O)N[C@@H](CC(N)=O)C(=O)N[C@H](C(=O)NCC(=O)N[C@@H](CO)C(=O)N[C@@H](CCCCN)C(=O)N[C@@H](C)C(=O)N[C@@H](Cc1ccccc1)C(N)=O)C(C)C)[C@@H](C)O)C(C)C)C(C)C)C(C)C)[C@@H](C)O)C(C)C)[C@@H](C)O)[C@@H](C)O
In test [2], B2 yielded a Ki of 24 nM.

B3: SEQ ID NO 703 (peptide)
peptide: [Phg]VTHRLAGLLSRSGGVVKNNFVPTDVGPFAF-NH2
modifications: N-terminus assumed
SMILES: CC(C)C[C@H](NC(=O)CNC(=O)[C@H](C)NC(=O)[C@H](CC(C)C)NC(=O)[C@H](CCCNC(=N)N)NC(=O)[C@H](Cc1c[nH]cn1)NC(=O)[C@@H](NC(=O)[C@@H](NC(=O)[C@@H](N)c1ccccc1)C(C)C)[C@@H](C)O)C(=O)N[C@@H](CC(C)C)C(=O)N[C@@H](CO)C(=O)N[C@@H](CCCNC(=N)N)C(=O)N[C@@H](CO)C(=O)NCC(=O)NCC(=O)N[C@H](C(=O)N[C@H](C(=O)N[C@@H](CCCCN)C(=O)N[C@@H](CC(N)=O)C(=O)N[C@@H](CC(N)=O)C(=O)N[C@@H](Cc1ccccc1)C(=O)N[C@H](C(=O)N1CCC[C@H]1C(=O)N[C@H](C(=O)N[C@@H](CC(=O)O)C(=O)N[C@H](C(=O)NCC(=O)N1CCC[C@H]1C(=O)N[C@@H](Cc1ccccc1)C(=O)N[C@@H](C)C(=O)N[C@@H](Cc1ccccc1)C(N)=O)C(C)C)[C@@H](C)O)C(C)C)C(C)C)C(C)C
B3 yielded an inhibition constant (Ki) in test [2] of 0.19 nM.

For the molecule WVTHXLAGLLSXSGGVVRKNFVPTDVGPXAF (Ac-WVTH[Cit]LAGLLS[Cit]SGGVVRKNFVPTDVGP[Tic]AF-NH2) [SEQ ID NO 146], the “IC50” value in test [1] worked out at 10.1 nM.

B4: SEQ ID NO 701 (peptide)
peptide: [1Nal]VTHRLAGLLSRSGGVVKNNFVPTDVGPFAF-NH2
modifications: N-terminus assumed
SMILES: CC(C)C[C@H](NC(=O)CNC(=O)[C@H](C)NC(=O)[C@H](CC(C)C)NC(=O)[C@H](CCCNC(=N)N)NC(=O)[C@H](Cc1c[nH]cn1)NC(=O)[C@@H](NC(=O)[C@@H](NC(=O)[C@@H](N)Cc1cccc2ccccc12)C(C)C)[C@@H](C)O)C(=O)N[C@@H](CC(C)C)C(=O)N[C@@H](CO)C(=O)N[C@@H](CCCNC(=N)N)C(=O)N[C@@H](CO)C(=O)NCC(=O)NCC(=O)N[C@H](C(=O)N[C@H](C(=O)N[C@@H](CCCCN)C(=O)N[C@@H](CC(N)=O)C(=O)N[C@@H](CC(N)=O)C(=O)N[C@@H](Cc1ccccc1)C(=O)N[C@H](C(=O)N1CCC[C@H]1C(=O)N[C@H](C(=O)N[C@@H](CC(=O)O)C(=O)N[C@H](C(=O)NCC(=O)N1CCC[C@H]1C(=O)N[C@@H](Cc1ccccc1)C(=O)N[C@@H](C)C(=O)N[C@@H](Cc1ccccc1)C(N)=O)C(C)C)[C@@H](C)O)C(C)C)C(C)C)C(C)C
The molecule B4 gave a Ki in test [2] of 0.14 nM.

The molecule [Cha]VTHRLAGLLSRSGGVVKNNFVPTDVGPFAF-NH2 [SEQ ID NO 704] came in with an inhibitory constant (Ki) in test [2] of 0.2 nM.

On to Ac-WVTH[Cit]LAGLLS[Cit]SGGVVRKNFVPTDVG[Tic]FAF-NH2 [SEQ ID NO 141], for which the 50% inhibitory concentration (IC50) in test [1] worked out at 4.32 nM.

B5: SEQ ID NO 700 (peptide)
peptide: Bn-VTHRLAGLLSRSGGVVKNNFVPTDVGPFAF-NH2
SMILES: CC(C)C[C@H](NC(=O)CNC(=O)[C@H](C)NC(=O)[C@H](CC(C)C)NC(=O)[C@H](CCCNC(=N)N)NC(=O)[C@H](Cc1c[nH]cn1)NC(=O)[C@@H](NC(=O)[C@@H](NCc1ccccc1)C(C)C)[C@@H](C)O)C(=O)N[C@@H](CC(C)C)C(=O)N[C@@H](CO)C(=O)N[C@@H](CCCNC(=N)N)C(=O)N[C@@H](CO)C(=O)NCC(=O)NCC(=O)N[C@H](C(=O)N[C@H](C(=O)N[C@@H](CCCCN)C(=O)N[C@@H](CC(N)=O)C(=O)N[C@@H](CC(N)=O)C(=O)N[C@@H](Cc1ccccc1)C(=O)N[C@H](C(=O)N1CCC[C@H]1C(=O)N[C@H](C(=O)N[C@@H](CC(=O)O)C(=O)N[C@H](C(=O)NCC(=O)N1CCC[C@H]1C(=O)N[C@@H](Cc1ccccc1)C(=O)N[C@@H](C)C(=O)N[C@@H](Cc1ccccc1)C(N)=O)C(C)C)[C@@H](C)O)C(C)C)C(C)C)C(C)C
B5: the affinity in test [2] corresponds to a Ki of 0.22 nM.

As for Ac-WVTH[Cit]LAGLLS[Cit]SGGVV[hArg]KNFVPTDVGPFA-NH2 (not fully specified) [SEQ ID NO 654], the concentration for half-maximal inhibition (IC50) in test [1] was > 1000 nM.

On to CGGGGGGGFVPTDVGPFAF-NH2 [SEQ ID NO 721], for which the inhibition constant (Ki) in test [2] amounted to 7.34 nM.

Ac-WVTH[Cit]LAGLLS[Cit]SGGVVRKNFVPTDVG[Tic]FAF-NH2 [SEQ ID NO 140]: the “IC50” value in test [1] is 3.02 nM.
